# Data published in US20090062190.
# System: LITAF + STAT6(B) complex (Homo sapiens)
# Test: cell_activity
# Conditions: TNF promoter-luciferase in U2OS cells; inhibited by LITAF shRNA
# Chain of LITAF + STAT6(B) complex (Homo sapiens) (chain, as listed by the source, chain 1 of 2): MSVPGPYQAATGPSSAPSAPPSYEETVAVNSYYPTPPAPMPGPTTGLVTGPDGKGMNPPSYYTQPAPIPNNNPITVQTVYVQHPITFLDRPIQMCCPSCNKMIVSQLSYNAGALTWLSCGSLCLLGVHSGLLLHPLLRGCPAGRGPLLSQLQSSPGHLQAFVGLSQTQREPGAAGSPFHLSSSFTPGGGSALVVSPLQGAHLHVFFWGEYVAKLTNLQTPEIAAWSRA
# Chain of LITAF + STAT6(B) complex (Homo sapiens) (chain, as listed by the source, chain 2 of 2): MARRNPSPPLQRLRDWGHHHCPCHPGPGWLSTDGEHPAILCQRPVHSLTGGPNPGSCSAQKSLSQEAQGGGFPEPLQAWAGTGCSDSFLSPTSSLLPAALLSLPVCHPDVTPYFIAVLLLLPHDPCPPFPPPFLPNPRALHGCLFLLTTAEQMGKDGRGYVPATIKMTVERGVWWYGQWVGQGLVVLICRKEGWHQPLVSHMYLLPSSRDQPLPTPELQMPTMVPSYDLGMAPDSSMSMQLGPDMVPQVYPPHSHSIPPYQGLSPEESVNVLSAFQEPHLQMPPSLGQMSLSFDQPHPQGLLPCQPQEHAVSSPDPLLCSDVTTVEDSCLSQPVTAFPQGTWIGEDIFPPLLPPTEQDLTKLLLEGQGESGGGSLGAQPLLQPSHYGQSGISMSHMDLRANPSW
substance,measurement,value
hTNF-alpha promoter DNA probe,activity (fold vs LITAF alone),1.5
